Tests used:
Rhesus IL-18 [1] = target: T1, Rhesus IL-18 (rhesus (rhesus/cynomolgus)); test: SPR, Biacore 3000, antibody captured on Protein A, 37 C
T1 construct: also called Rhesus/Cynomolgus IL-18; rhesus/cynomolgus IL-18
Method: (§1) Biacore™ kinetic analysis of the humanised 2C10 antibodies was carried out on a Biacore™ 3000 instrument using Protein A capture of the antibodies in HBS-EP buffer (Biacore™). Briefly, Protein A was immobilised on a CM5 chip by primary amine coupling, using manufacturers recommended protocol, to densities around 2000-4000 resonance units (RU's). Humanised antibody was then passed over the Protein A surface and captured to levels of around 200-500 RU's, after a period of stabilisation, IL-18 (human or Rhesus) was passed over the captured antibody surface at defined concentrations and binding sensorgrams were obtained. […] All curves were double referenced against a buffer injection instead of IL-18 and the data was fitted to the 1:1 binding model using the global fit parameters in BiaEval 4.1. Off-rate ranking experiments were set up using the same Protein A capture method, however, only a single concentration of IL-18 was used (10 nM). Whilst the data was fitted using the same binding model as the kinetic analysis, since only one concentration of analyte was used on the off-rate is reported, this value is useful for ranking rather than giving an exact kinetic measurement and was used as a way of selecting which antibodies would be further investigated.
(§2) Based upon these observations selected antibodies were investigated in greater detail for binding to human and Rhesus IL-18 at 37° C. The data shown in Table 4b for human IL-18 is the mean (and standard deviation) of six separate determinations.

[2] = target: T2, Human interleukin-18 (recombinant human IL-18) (human, UniProt Q14116 37-193); test: as above
T2 construct: also called hIL-18
T2 sequence: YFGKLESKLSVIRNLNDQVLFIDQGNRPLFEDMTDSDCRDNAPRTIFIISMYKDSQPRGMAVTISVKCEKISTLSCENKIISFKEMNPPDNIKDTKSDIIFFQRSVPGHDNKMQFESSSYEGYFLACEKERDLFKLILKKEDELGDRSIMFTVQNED
Method: as §1, §2

[3] = target: T2, Human interleukin-18 (recombinant human …); test: ELISA, human IL-18 captured by 16D10, antibody titrated
Method: ELISA with all nine humanised variants was carried out at least 6 times using various batches of purified antibody preparation. FIGS. 4A-4C show representative data from one experiment which generated the EC50 value ranking illustrated in Table 7. Human IL-18 was immobilized on Nunc Maxisorp 96-well plates using 2.5 µg/ml of 16D10 (non-neutralising mouse monoclonal antibody) to capture 5 ng/ml of recombinant human IL-18. Anti-IL-18 humanised antibodies were added at various dilutions. Bound humanised antibodies were detected using anti-human IgG Fc specific peroxidase conjugate (Sigma A0170).

Rhesus IL-18 [4] = target: T1, Rhesus IL-18; test: SPR, Biacore 3000, antibody captured on Protein A, 25 C
Method: as §1, §2

[5] = target: T2, Human interleukin-18 (recombinant human …); test: ELISA, antibody on plate, human IL-18 captured, detected by 16D10; room temperature, in serum; room temperature incubation, in presence of serum
Method: ELISA was carried out with the three Humanised H1 variants; H1L1, H1L2 and H1L3 to assess binding to human IL-18 at room temperature and at 37° C. in both human serum and in block solution (PBS 0.05% TWEEN with 1% BSA (w/v)). The Humanised antibody variants were immobilised on Nunc Maxisorp 96-well plates at 2.5 µg/ml. Capture of 5 ng/ml of recombinant human IL-18 was carried out either at room temperature or 37° C. in human serum or block solution. Anti-IL-18 mouse monoclonal antibody 16D10 was added. The bound mouse antibody was detected using anti-mouse kappa peroxidase conjugate (Serotec MCA 1291P). Representative EC50 values generated from the study data are illustrated in Table 9.

B1: H1L2 humanised anti-IL-18 antibody (antibody, human IgG1, kappa, V domains shown)
VH: QVQLVQSGAEVKKPGASVKVSCKVSGEISTGYYFHWVRQAPGKGLEWMGRIDPEDDSTKYAERFKDRVTMTEDTSTDTAYMELSSLRSEDTAVYYCTTWRIYRDSSGRPFYVMDAWGQGTLVTVSS
VL: DIQMTQSPSSVSASVGDRVTITCLASEDIYTYLTWYQQKPGKAPKLLIYGANKLQDGVPSRFSGSGSGTDYTLTISSLQPEDFATYYCLQGSKFPLTFGQGTKLEIKR
notes: Human IgG1 / kappa
**Q.** B1 was tested. Which Kd (Rhesus IL-18 [1]) did it give?
**A.** The Kd was 0.139 nM.

**Q.** What about the Kd [2] of the same binder?
**A.** Its Kd is 0.197 nM.

**Q.** And the EC50 [3]?
**A.** The EC50 was 0.011 mg/L.

**Q.** What about the Kd (Rhesus IL-18 [4]) of the same binder?
**A.** Its Kd is 0.108 nM.

**Q.** And the EC50 [5]?
**A.** Its EC50 is 0.00979 mg/L.

Source: patent US8133978 (GlaxoSmithKline, dated 2012)
